This is an account of results in article PMC7504435, “Combined Protein- and Ligand-Observed NMR Workflow to Screen Fragment Cocktails against Multiple Proteins: A Case Study Using Bromodomains” (Molecules, 2020).

In one test the target is PfGCN5 bromodomain (Plasmodium falciparum, UniProt Q8IB67). The test is described as follows: 1H-15N HSQC NMR titration with PfGCN5. The settings on record: 1H-15N HSQC titration (Figure S14); read-out: Kd PfGCN5. The class given is binding. From the text: To cross-validate our findings, ^1H-^15N HSQC NMR was used to further examine the binding mode of 9 to PfGCN5 in the presence and absence of known ligands. The ^1H-^15N HSQC spectrum of PfGCN5 is unassigned. For ease of spectral interpretation, all resonances that were distinctly visible were assigned as 1-64. Fragment 9, GSK4027, and the acetylated peptide H2A.Z II K7,13ac were titrated against PfGCN5. At the highest ligand concentration, resonances with Δδ > x^− + 0.60*s, where x^− is the mean and s is the standard deviation at the highest concentration, were defined as significant. The correction factor of 0.60 is to compensate for only 60% of the resonances being usable for analysis. Titration of 9 with PfGCN5 gave linear and non-linear dose-dependent chemical shift perturbations. Of the five resonances with non-linear movement, only one (10) was considered to have significant movement. […] This affinity with the non-fluorine-labeled protein is similar but higher than the affinity determined by PrOF NMR. […]
Sequence of PfGCN5 bromodomain (Q8IB67 entry or part of it): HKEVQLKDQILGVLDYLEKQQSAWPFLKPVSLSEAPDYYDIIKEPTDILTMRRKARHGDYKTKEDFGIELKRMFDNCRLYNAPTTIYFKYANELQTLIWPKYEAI
^1H-^15N SOFAST HSQC.^1H-^15N SOFAST HSQC spectra were obtained on a Bruker 600 MHz Avance NEO with a CryoProbe 5 mm TCI (^1H, ^13C, ^15N, ^2H) w/ Z-gradient using Bruker’s IBS_SOFAST.x method with 32 scans, 0.05 s acquisition time, and 0.2 s delay. […] Data were processed with nmrDraw, nmrPipe, and NFRAM Sparky. Δδ^1H-^15N was calculated using Equation (3). […]

A further test has as its target BPTF bromodomain (Homo sapiens, UniProt Q12830). The conditions noted are these: cited from earlier work.

For orientation: Kd means the concentration at which binding is half-saturated. For “H2A.Z II K7,13ac: acetylated N-terminal tail peptide of a histone protein (AGGKAGKDSGKAKAK; acetyl-Lys7 and acetyl-Lys13 in mature numbering (UniProt K8 and K14); C-terminal amide expected from NovaSyn TGR resin) [reference compound]”, in the test with PfGCN5 bromodomain, the Kd was 670 µM.

In the case of “H2A.Z II K7,13ac peptide N-terminal tail (from UniProt Q71UI9)”, the Kd with BPTF bromodomain was 310 µM.
